The supplement of paper PMC10126150
± gives the standard deviation of the averaged measurements.

System: ATP
Test: switch fluorescence ratio, 500 uM ATP over buffer (Cy3 cluster intensity, sum of 5 cycles each) (fold (ratio)); higher = stronger signal-on switching upon ATP binding; sequences stand for … in TCGTCGGCAGCGTCAGATGTGTATAAGAGACAGTTTTTTTTTTTTTTTTTTTTTTTTT…TC
Conditions: aptamer strand: ATP DNA aptamer (quencher-CACCTGGGGGAGTATTGCGGAGGAAGG + anchor), 100 nM annealed; ATP concentration: 500 uM
Method in brief: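 Switching-strand clusters labelled with Cy3 on a modified Illumina MiSeq flow-cell were annealed to 100 nM quencher-labelled ATP aptamer, imaged in selection buffer, and re-imaged after 15 min with 500 uM ATP at 22 °C. This was done over five cycles with NaOH stripping and re-annealing in between. The fluorescence ratio is summed target-cycle over summed buffer-cycle Cy3 intensity per cluster, averaged per switch-domain sequence, excluding clusters outside 100-1000 RFU.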
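Also: ATP exposure 15 min at 22 °C before imaging.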

Sequence | switch fluorescence ratio
AGTTGGCGGC | 1.02 ± 0.039
AGTTGGCTTG | 1.03 ± 0.03
AGTTGGGGTA | 1 ± 0.013
AGTTGGGGTT | 1.035 ± 0.0033
AGTTGGGTCG | 1.004 ± 0.0056
AGTTGGTGG | 1.02 ± 0.024
AGTTGGTTAC | 1.01 ± 0.023
AGTTGGTTAT | 0.974 ± 0.022
AGTTGTAAGG | 0.962 ± 0.014
AGTTGTACAA | 1.012 ± 0.01
AGTTGTGGGC | 0.968 ± 0.018
AGTTGTGTAT | 1.01 ± 0.051
AGTTGTTAGT | 0.969 ± 0.021
AGTTGTTTGG | 1 ± 0.025
AGTTTAGGGG | 0.9796 ± 0.0016
AGTTTAGTGA | 0.996 ± 0.044
AGTTTATAGA | 1.01 ± 0.023
AGTTTATGCA | 1 ± 0.017
AGTTTATGCG | 0.979 ± 0.021
AGTTTATTC | 1.01 ± 0.061
AGTTTCCTGC | 1.01 ± 0.015
AGTTTCGCTC | 0.987 ± 0.063
AGTTTCGGCG | 1 ± 0.02

Sequence | switch fluorescence ratio
AGTTTCTAGT | 0.97 ± 0.043
AGTTTGATGG | 0.99 ± 0.087
AGTTTGCGGC | 0.94 ± 0.039
AGTTTGGGAA | 1 ± 0.018
AGTTTGGGTA | 0.9959 ± 0.008
AGTTTGGGTC | 0.984 ± 0.057
AGTTTGGTGC | 1.05 ± 0.027
AGTTTGTTCG | 0.953 ± 0.022
AGTTTTACAG | 1.01 ± 0.02
AGTTTTGCTC | 0.981 ± 0.012
AGTTTTTATA | 1.002 ± 0.0012
AGTTTTTGTC | 0.953 ± 0.048
AGTTTTTTTC | 1.02 ± 0.023
ATAAAAAAGG | 1.01 ± 0.017
ATAAAAACAT | 1 ± 0.027
ATAAAACATG | 0.9785 ± 0.0055
ATAAAATAAA | 0.976 ± 0.031
ATAAACCGGG | 1.02 ± 0.043
ATAAAGACTT | 0.9755 ± 0.0058
ATAAAGCAGT | 1.02 ± 0.048
ATAAAGCTTA | 1 ± 0.03
ATAAAGGGTT | 0.9936 ± 0.009
ATAAATGGGC | 0.972 ± 0.014

Sequence | switch fluorescence ratio
ATAAATGGGT | 0.9945 ± 0.0025
ATAAATTGCA | 0.998 ± 0.02
ATAAATTTTC | 0.951 ± 0.043
ATAACCAGTT | 0.988 ± 0.014
ATAACCCTTT | 1.12 ± 0.18
ATAACCGTAC | 2.46 ± 0.27
ATAACGCTCG | 1 ± 0.018
ATAACGGAGG | 0.9773 ± 0.0088
ATAACGGGGG | 1 ± 0.033
ATAACGTACT | 1.84 ± 0.18
ATAACTCGGA | 1 ± 0.0019
ATAAGAAACG | 0.946 ± 0.064
ATAAGAACCG | 1.07 ± 0.017
ATAAGACGTT | 1.01 ± 0.041
ATAAGACTCT | 0.9964 ± 0.0081
ATAAGATTTT | 1.01 ± 0.048
ATAAGCAGGA | 1.02 ± 0.017
ATAAGCATGT | 1.02 ± 0.034
ATAAGCATTA | 1.05 ± 0.11
ATAAGCCCCG | 0.993 ± 0.049
ATAAGCGTTC | 1.04 ± 0.0013
ATAAGGGCTT | 0.929 ± 0.11
ATAAGGTCAA | 0.995 ± 0.047

Sequence | switch fluorescence ratio
ATAAGGTCGT | 1.02 ± 0.039
ATAAGGTTTT | 0.985 ± 0.014
ATAAGTGGTT | 0.995 ± 0.026
ATAAGTTAAA | 1.07 ± 0.12
ATAAGTTGGG | 0.968 ± 0.024
ATAATAGATA | 1.01 ± 0.038
ATAATAGGGT | 0.972 ± 0.03
ATAATAGTTG | 1.02 ± 0.018
ATAATCCTTG | 1.01 ± 0.005
ATAATGCAGC | 0.988 ± 0.019
ATAATGGAGT | 0.983 ± 0.066
ATAATGGGTT | 1.05 ± 0.058
ATAATGTAGC | 1.04 ± 0.036
ATAATTATGT | 1 ± 0.018
ATAATTCGGC | 0.984 ± 0.022
ATAATTGTCT | 1.04 ± 0.04
ATAATTTGGT | 0.982 ± 0.038
ATAATTTTAT | 1.08 ± 0.13
ATACCAGGTT | 1.18 ± 0.063
ATACCCTAGC | 1.09 ± 0.014
ATACCGAAGT | 1.17 ± 0.18
ATACCGAGTG | 0.991 ± 0.029
ATACCTGAGT | 1.21 ± 0.034

Sequence | switch fluorescence ratio
ATACGAACGT | 0.9928 ± 0.0019
ATACGCGGGC | 1.27 ± 0.038
ATACGCTTTT | 1.14 ± 0.14
ATACGGAAAA | 1.046 ± 0.004
ATACGGATGC | 1.06 ± 0.025
ATACGGCATG | 1.08 ± 0.011
ATACGGGAAG | 1.05 ± 0.031
ATACGGGTAG | 0.9821 ± 0.0052
ATACGGTAGG | 1.006 ± 0.01
ATACGTGGGA | 1.01 ± 0.032
ATACTAAGTG | 1.01 ± 0.02
ATACTCAGTG | 1.069 ± 0.0084
ATACTCATAT | 1.01 ± 0.015
ATACTGAATT | 1.005 ± 0.0065
ATACTGAGTT | 1.05 ± 0.042
ATACTTACCG | 1.223 ± 0.0077
ATACTTATAT | 1.038 ± 0.0097
ATACTTGGCT | 0.992 ± 0.02
ATACTTTTGG | 1 ± 0.011
ATAGAAAGGG | 1.02 ± 0.063
ATAGAAGAAA | 1.02 ± 0.047
ATAGACAGCA | 1.01 ± 0.025
ATAGACGTTT | 0.994 ± 0.053

Sequence | switch fluorescence ratio
ATAGAGATGT | 0.978 ± 0.018
ATAGAGCGCT | 0.988 ± 0.023
ATAGAGGGGT | 1.01 ± 0.023
ATAGAGGGTG | 1.05 ± 0.071
ATAGAGGTGA | 1.019 ± 0.0022
ATAGATAGGG | 0.969 ± 0.021
ATAGATCGCA | 1.02 ± 0.018
ATAGATGATC | 1 ± 0.031
ATAGCATTAT | 1.14 ± 0.026
ATAGCTTGGC | 1.011 ± 0.0047
ATAGGAGAGT | 1.003 ± 0.0091
ATAGGAGGTG | 1.07 ± 0.019
ATAGGATAGT | 0.976 ± 0.015
ATAGGCGTGC | 1 ± 0.011
ATAGGGAGGT | 1.01 ± 0.032
ATAGGGATGG | 0.9829 ± 0.0035
ATAGGGCAGC | 1.03 ± 0.04
ATAGGGGCTA | 0.988 ± 0.02
ATAGGGGCTC | 0.988 ± 0.021
ATAGGGTGCT | 1.04 ± 0.027
ATAGGTAGGC | 1.05 ± 0.072
ATAGGTCTAT | 1.04 ± 0.065
ATAGGTGGCG | 1.01 ± 0.038

Sequence | switch fluorescence ratio
ATAGTAGTGG | 1.003 ± 0.0081
ATAGTATAGA | 1.01 ± 0.047
ATAGTATTTT | 0.995 ± 0.025
ATAGTCCACC | 1.014 ± 0.0072
ATAGTCCATA | 0.991 ± 0.015
ATAGTCCCTA | 1.01 ± 0.0019
ATAGTCGCCC | 1.009 ± 0.0031
ATAGTCGCGC | 0.993 ± 0.058
ATAGTGAAGT | 0.982 ± 0.019
ATAGTTAAAC | 1.01 ± 0.012
ATAGTTTG | 0.97739 ± 0.00022
ATATAAGCGG | 1.02 ± 0.047
ATATAATGAT | 1.02 ± 0.02
ATATAATTTG | 1.04 ± 0.055
ATATACGAGT | 1.002 ± 0.005
ATATACGGTA | 1.15 ± 0.03
ATATAGAGGG | 0.9958 ± 0.0031
ATATAGGATT | 0.9893 ± 0.0068
ATATAGTTGT | 0.999 ± 0.016
